Data on two molecules can be found in article PMC8219681, “Inhibition of MRN activity by a telomere protein motif” (Nature Communications, 2021).

In assay [1] the target is T1, Xrs2 (S. cerevisiae, FLAG-tagged at the C terminus) (S. cerevisiae, UniProt P33301 1-854).
T1 construct: Xrs2, Saccharomyces cerevisiae; also called Xrs2-FLAG; not shown: FLAG, C-terminal, kept
T1 sequence (looked up): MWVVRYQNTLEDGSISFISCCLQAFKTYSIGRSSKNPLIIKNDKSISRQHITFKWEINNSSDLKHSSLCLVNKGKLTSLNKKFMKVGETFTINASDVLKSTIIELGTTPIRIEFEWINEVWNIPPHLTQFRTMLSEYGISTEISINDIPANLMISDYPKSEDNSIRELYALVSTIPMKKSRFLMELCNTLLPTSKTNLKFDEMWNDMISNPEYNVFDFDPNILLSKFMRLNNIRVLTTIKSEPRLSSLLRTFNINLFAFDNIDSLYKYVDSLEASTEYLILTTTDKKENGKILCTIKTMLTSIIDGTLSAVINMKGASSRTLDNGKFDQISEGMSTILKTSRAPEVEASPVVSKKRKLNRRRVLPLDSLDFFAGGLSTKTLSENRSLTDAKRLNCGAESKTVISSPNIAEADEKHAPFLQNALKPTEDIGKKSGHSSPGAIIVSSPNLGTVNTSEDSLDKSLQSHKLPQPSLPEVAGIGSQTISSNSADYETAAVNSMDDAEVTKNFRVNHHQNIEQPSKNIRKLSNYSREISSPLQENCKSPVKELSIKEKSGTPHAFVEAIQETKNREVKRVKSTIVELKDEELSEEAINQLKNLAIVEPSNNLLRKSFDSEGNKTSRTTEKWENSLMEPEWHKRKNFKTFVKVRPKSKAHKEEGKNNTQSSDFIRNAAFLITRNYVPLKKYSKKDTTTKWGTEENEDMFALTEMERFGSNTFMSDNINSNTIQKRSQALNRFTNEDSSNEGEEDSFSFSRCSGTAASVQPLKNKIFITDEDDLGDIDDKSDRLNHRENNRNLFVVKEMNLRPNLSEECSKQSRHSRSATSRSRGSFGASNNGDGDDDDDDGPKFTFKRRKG
Put plainly: pull-down; MBP-Rif2 or MBP-Rif2-min (~5 ug, from Sf9 lysate) immobilised on amylose resin and washed; 1 ug Mre11, 500 ng Rad50 or 1 ug Xrs2 added for 1 h in 50 mM Tris-HCl pH 7.5, 200 mM NaCl, 0.2% NP40, 2 mM EDTA; eluted with 20 mM maltose; Western blot. As to conditions: both partners purified. For orientation: In western blotting, separated proteins are transferred to a membrane and probed.

The target in assay [2] is T2, Mre11 (S. cerevisiae, his-tagged at the C terminus) (S. cerevisiae, UniProt P32829 1-692).
T2 construct: Mre11, Saccharomyces cerevisiae; also called Mre11-his; not shown: His tag, C-terminal, kept
T2 sequence (looked up): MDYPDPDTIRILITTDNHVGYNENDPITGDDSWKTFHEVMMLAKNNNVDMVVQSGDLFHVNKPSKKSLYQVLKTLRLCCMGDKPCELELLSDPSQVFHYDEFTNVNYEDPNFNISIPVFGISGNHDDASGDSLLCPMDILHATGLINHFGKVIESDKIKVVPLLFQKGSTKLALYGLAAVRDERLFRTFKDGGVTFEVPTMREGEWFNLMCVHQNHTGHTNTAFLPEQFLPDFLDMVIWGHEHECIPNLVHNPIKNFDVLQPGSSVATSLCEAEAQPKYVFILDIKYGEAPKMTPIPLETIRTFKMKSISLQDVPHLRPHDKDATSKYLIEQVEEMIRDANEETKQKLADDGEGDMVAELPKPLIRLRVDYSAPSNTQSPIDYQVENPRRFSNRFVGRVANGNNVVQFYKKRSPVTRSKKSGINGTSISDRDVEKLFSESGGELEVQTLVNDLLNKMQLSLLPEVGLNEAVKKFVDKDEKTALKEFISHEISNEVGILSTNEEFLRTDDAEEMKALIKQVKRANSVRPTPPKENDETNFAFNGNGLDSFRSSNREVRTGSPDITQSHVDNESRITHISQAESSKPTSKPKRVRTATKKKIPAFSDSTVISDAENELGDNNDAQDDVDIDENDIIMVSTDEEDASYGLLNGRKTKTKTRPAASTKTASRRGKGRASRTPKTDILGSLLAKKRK
The description is as above. To be noted: both partners purified.

B1: MBP-Rif2 (S. cerevisiae Rif2, wild type) (natural protein, UniProt Q06208 1-395, looked up)
chain: MEHVDSDFAPIRRSKKVVDSDKIVKAISDDLEQKNFTVLRKLNLVPIKKSVSSPKVCKPSPVKERVDHVFYQKFKSMALQELGTNYLSISYVPSLSKFLSKNLRSMKNCIVFFDKVEHIHQYAGIDRAVSETLSLVDINVVIIEMNDYLMKEGIQSSKSKECIESMGQASYSGQLDFEASEKPSNHTSDLMMMVMRKINNDESIDHIVYFKFEQLDKLSTSTIIEPSKLTEFINVLSVLEKSNNIAFKVLIYSNNVSISSLLSTSLKKKLNTKYTVFEMPILTCAQEQEYLKKMIKFTFDSGSKLLQSYNSLVTCQLNNKESNLAIFFEFLKVFPHPFTYLFNAYTEIIVQSRTFDELLDKIRNRLTIKNYPHSAYNFKKNQRLPLKLTRKVHDR
notes: Rif2, Saccharomyces cerevisiae, full length, expressed from the vector pFB-MBP-Rif2-his; MBP was cleaved with PreScission protease only after elution from the resin; N-terminal place of MBP is read from the construct's name MBP-Rif2-his; also called ScRif2; not shown: MBP, N-terminal, kept
Turning to B1, the binding result in assay [1] and in assay [2] was “binds” each time.

B2: MBP-Rif2-min (S. cerevisiae Rif2 F8E P10N) (natural protein, UniProt Q06208 1-395, looked up)
chain: MEHVDSDEANIRRSKKVVDSDKIVKAISDDLEQKNFTVLRKLNLVPIKKSVSSPKVCKPSPVKERVDHVFYQKFKSMALQELGTNYLSISYVPSLSKFLSKNLRSMKNCIVFFDKVEHIHQYAGIDRAVSETLSLVDINVVIIEMNDYLMKEGIQSSKSKECIESMGQASYSGQLDFEASEKPSNHTSDLMMMVMRKINNDESIDHIVYFKFEQLDKLSTSTIIEPSKLTEFINVLSVLEKSNNIAFKVLIYSNNVSISSLLSTSLKKKLNTKYTVFEMPILTCAQEQEYLKKMIKFTFDSGSKLLQSYNSLVTCQLNNKESNLAIFFEFLKVFPHPFTYLFNAYTEIIVQSRTFDELLDKIRNRLTIKNYPHSAYNFKKNQRLPLKLTRKVHDR
notes: Rif2, Saccharomyces cerevisiae, full length, F8E P10N, expressed from the vector pFB-MBP-Rif2-min-his; MBP was cleaved with PreScission protease only after elution from the resin; N-terminal place of MBP is read from the construct's name; also called mutant Rif2; not shown: MBP, N-terminal, kept
As to B2, the binding result in assay [1] and in assay [2] was “binds” in each case.
